# Data as given in paper PMC4027189.
# How the values were obtained:
# [1] = biological target: H2A–H2B (H2A T118C labeled with Alexa-488 refolded with H2B) (UniProt P04911); assay: FRET or BRET
# [2] = biological target: H3–H4 (H3 refolded with labeled H4 E63C) (UniProt P61830); assay: FRET or BRET
# Sequence of UniProt P04911 (P04911 2-132, chain 1 of 2): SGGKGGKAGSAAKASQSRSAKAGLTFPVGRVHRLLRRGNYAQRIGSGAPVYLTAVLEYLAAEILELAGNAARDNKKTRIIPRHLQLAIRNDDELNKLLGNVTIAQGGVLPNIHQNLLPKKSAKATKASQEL
# Sequence of UniProt P04911 (P02294 2-131 T119C, chain 2 of 2, further chain): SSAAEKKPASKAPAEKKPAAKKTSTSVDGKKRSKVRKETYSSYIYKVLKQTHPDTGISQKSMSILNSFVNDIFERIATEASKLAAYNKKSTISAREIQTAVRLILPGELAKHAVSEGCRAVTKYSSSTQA
substance,measurement,setting,value
"Scm3, full length, labeled with Atto-647N at cysteine 41 (from UniProt Q12334 1-223) (natural protein)",Kd,[1],305 nM
same,Kd,[2],196 nM
